Targets include HA-tagged STAT1 K584R (UniProt P42224); HA-tagged STAT1 K193R (UniProt P42224); HA-tagged STAT1 (WT) (UniProt P42224).
What all share (test): co-IP; 293T cells co-transfected with HA-tagged STAT1 (WT, K193R, K584R) and FLAG-p300; band intensities quantified; which protein was precipitated not given

Consider FLAG-p300, Q09472 1-2414, for which the relative co-IP band intensity with HA-tagged STAT1 K584R is 0.239; with HA-tagged STAT1 K193R, 0.194; with HA-tagged STAT1 (WT), 0.202.

Source of the values: paper PMC12302927.
